Measurements reported in patent publication US20020064828A1 (UNIVERSITY OF BALTIMORE BIOTECHNOLOGY INSTITUTE, published 2002).
Where no end group is shown, it is not given here.

T1: PS2-loop D bait (LexA fusion, divergent region of the PS2 loop) (human, also: N-terminal LexA (pEG202) fusion, limits and linker not given here)
T1 construct: Range 301-319 is inferred from loop B being divided into loop C (31 aa) and loop D; not shown: LexA moiety of pEG202, NH2-terminal of the bait
T1 chain: TVGMAKLDPSSQGALQLPY


Legend:
[1] = target: full-length human presenilin 2 (PS2) expressed in HeLa cells (human, UniProt P49810 1-448); assay: cell-based or functional assay
[2] = target: T2, PS1-loop C bait with T281P, T291A (human); assay: yeast two-hybrid liquid assay, mutated PS1-loop C bait against PS2-loop C bait
T2 construct: Range inferred as for PS1-loop C; also called (T281P, T291A) double mutant; not shown: LexA moiety of pEG202 (N-terminal fusion partner) and the vector-encoded junction residues
Method: (§1) Three isolates from yeast transformed with the calmyrin in pJG4-5 (clone 7) plus each PS bait or the control lamin bait were assayed for β-galactosidase enzyme activity in liquid cultures using ONPG (O-nitrophenyl β-D-galactopyranoside) as a substrate (Reynolds and Lundblad, 1989).
(§2) Further investigation was performed to determine how these three divergent residues influenced calmyrin interaction with the PS-loop C region in yeast two-hybrid assays. […] When both proline and alanine were present together (T281P, T291A) they increased binding substantially, producing an approximately twofold higher level of binding compared with the wild-type PS2-loop bait.

[3] = target: T3, PS1-loop C bait with T281P (human); assay: as above
T3 construct: Range inferred as for PS1-loop C; not shown: LexA moiety of pEG202 (N-terminal fusion partner) and the vector-encoded junction residues
Method: as §1, §2

[4] = target: T4, PS1-loop C bait with T291A (human); assay: as above
T4 construct: Range inferred as for PS1-loop C; not shown: LexA moiety of pEG202 (N-terminal fusion partner) and the vector-encoded junction residues
Method: as §1, §2

[5] = target: T5, PS1-loop C bait with L282I, T291A (human); assay: yeast two-hybrid liquid assay, mutated PS1-loop C bait against the T291A bait
T5 construct: Range inferred as for PS1-loop C; not shown: LexA moiety of pEG202 (N-terminal fusion partner) and the vector-encoded junction residues
Method: as §1, §2

[6] = target: T6, PS2-loop C bait (LexA fusion, conserved 31-amino acid loop region of PS2) (human); assay: yeast two-hybrid liquid beta-galactosidase assay (ONPG), LexA bait and calmyrin prey
T6 construct: Range 270-300 follows from loop start 270 and '31 amino acids'; also called wild-type PS2-loop bait; not shown: LexA moiety of pEG202, NH2-terminal of the bait
Method: (§3) All PCR-amplified regions were digested with EcoRI and XhoI, cloned into pEG202, and confirmed by DNA sequencing. These various baits were transformed into EGY48 and found by immunoblotting of yeast extracts to express appropriately sized lexA-PS fusion polypeptides. Three isolates from yeast transformed with the calmyrin in pJG4-5 (clone 7) plus each PS bait or the control lamin bait were assayed for β-galactosidase enzyme activity in liquid cultures using ONPG (O-nitrophenyl β-D-galactopyranoside) as a substrate (Reynolds and Lundblad, 1989).
(§4) To further map the binding site of calmyrin within the PS2-loop, two new baits were constructed which divided the loop into a conserved portion, loop C (28 out of the 31 amino acids are identical to PS1 ), and a divergent region, loop D (only 33% identity to PS1; FIG. 1).

[7] = target: T7, PS2-loop B bait (LexA fusion, first 50 amino acids of the PS2 loop) (human, UniProt O88777 270-319 (rat entry)); assay: as above
T7 construct: Range 270-319 follows from 'residues 270-361' and 'the first 50 amino acids of the PS2 loop'; also called PS2-loop bait; loop bait; not shown: LexA moiety of the pEG202 LexA fusion plasmid, NH2-terminal of the bait
T7 sequence (O88777 270-319 limits assumed): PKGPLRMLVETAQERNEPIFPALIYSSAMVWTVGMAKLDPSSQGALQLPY
Method: as §3, §4

[8] = target: T8, PS1-loop C bait (LexA fusion, region of PS1 corresponding to PS2-loop C) (human); assay: as above
T8 construct: not shown: LexA moiety of pEG202, NH2-terminal of the bait
Method: as §3, §4

[9] = target: T1, PS2-loop D bait (LexA fusion, divergent …); assay: as above
Method: as §3, §4

[10] = target: T9, PS1-loop B bait (LexA fusion, region of PS1 corresponding to PS2-loop B) (human, UniProt P49768 264-315); assay: as above
T9 construct: not shown: LexA moiety of pEG202, NH2-terminal of the bait
Method: as §3, §4

[11] = target: T10, PS2-C term bait (LexA fusion, COOH-terminal sequence of PS2 downstream of the eighth TMD) (human); assay: yeast two-hybrid liquid beta-galactosidase assay
T10 construct: also called PS2-COOH-terminal construct; PS2-COOH-terminal domain; not shown: LexA moiety of pEG202, NH2-terminal of the bait
T10 sequence (chain, as listed by the source limits assumed): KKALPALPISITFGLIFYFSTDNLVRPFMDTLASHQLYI
Method: as §3
To quantify the binding specificity of calmyrin to the PS2-loop and to determine if this protein also interacts with the PS1 loop which is 45% identical in amino acid sequence, the galactosidase activity was measured in yeast liquid assays.

[12] = target: T8, PS1-loop C bait (LexA fusion, region of …); assay: yeast two-hybrid liquid assay, PS1-loop C against PS2-loop C
[13] = target: T11, PS1-loop C bait with T281P, L282I (human); assay: yeast two-hybrid liquid assay, mutated PS1-loop C bait against the T281P bait
T11 construct: Range inferred as for PS1-loop C; not shown: LexA moiety of pEG202 (N-terminal fusion partner) and the vector-encoded junction residues
Method: as §1, §2

| fold level of binding compared with the wild-type PS2-loop bait [2] [fold] | interaction relative to the PS2 level [3] | binding relative to the PS2 level [4] | binding result [5] | fold increase in beta-galactosidase activity over control [6] [fold] | fold increase in beta-galactosidase activity over lamin B control [7] [fold] | fold increase in beta-galactosidase activity over control [8] [fold] | fold increase in beta-galactosidase activity over control [9] [fold] | fold increase in beta-galactosidase activity over lamin B control [10] [fold] | binding result [11] | interaction strength relative to the PS2-loop region [12] | fold binding compared with the T281P bait [13] [fold] | Binder | cell death (floating HeLa cells), fold over control, on coexpression [1] [fold] |
| --- | --- | --- | --- | --- | --- | --- | --- | --- | --- | --- | --- | --- | --- |
| – | – | – | – | – | – | – | – | – | – | – | – | untagged full-length wild type calmyrin expressed in HeLa cells (other, myristoylated (NH2 consensus myristoylation site; 3H-myristic acid incorporated)) GGSGSRLSKELLAEYQDLTFLTKQEILLAHRRFCELLPQEQRTVESSLRAQVPFEQILSLPELKANPFKERICRVFSTSPAKDSLSFEDFLDLLSVFSDTATPDIKSHYAFRIFDFDDDGTLNREDLSRLVNCLTGEGEDTRLSASEMKQLIDNILEESDIDRDGTINLSEFQHVISRSPDFASSFKIVL | 5.9 |
| ~2 | ~0.5 fraction of the PS2 level | 0.33 fraction of the PS2 level | binds | 74 | 8.5 | 5.8 | 2.2 | 1.9 | no binding | < 0.1 fraction of the PS2-loop strength | 1.7 | calmyrin (calcium-binding myristoylated protein with homology to calcineurin), yeast two-hybrid prey in pJG4-5 (clone 7) (other, not shown: large carriers, Prey fusion in yeast; also called CIB; KIP) MGGSGSRLSKELLAEYQDLTFLTKQEILLAHRRFCELLPQEQRTVESSLRAQVPFEQILSLPELKANPFKERICRVFSTSPAKDSLSFEDFLDLLSVFSDTATPDIKSHYAFRIFDFDDDGTLNREDLSRLVNCLTGEGEDTRLSASEMKQLIDNILEESDIDRDGTINLSEFQHVISRSPDFASSFKIVL | – |
